Results from article doi:10.1101/2022.04.14.488316 (bioRxiv, 2022).
No end group written: not given here.

How the values were obtained:
Assay in all cases: fluorescence polarisation
[1] = target: VHL-ElonginC-ElonginB (VCB), wild type (UniProt P40337;Q15369;Q15370)
[2] = target: VHL-ElonginC-ElonginB (VCB) with VHL N67Q (UniProt P40337;Q15369;Q15370, N67Q)
[3] = target: VHL-ElonginC-ElonginB (VCB) with VHL P71I (UniProt P40337;Q15369;Q15370, P71I)

Measured: binding result

Chain of VHL-ElonginC-ElonginB (VCB), wild type (P40337 54-213, chain 1 of 3): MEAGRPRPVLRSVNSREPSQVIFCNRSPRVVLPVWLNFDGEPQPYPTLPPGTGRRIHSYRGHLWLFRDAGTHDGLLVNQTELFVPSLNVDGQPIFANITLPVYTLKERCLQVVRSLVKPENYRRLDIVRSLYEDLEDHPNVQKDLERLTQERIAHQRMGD
Chain of VHL-ElonginC-ElonginB (VCB), wild type (Q15369 17-112, chain 2 of 3): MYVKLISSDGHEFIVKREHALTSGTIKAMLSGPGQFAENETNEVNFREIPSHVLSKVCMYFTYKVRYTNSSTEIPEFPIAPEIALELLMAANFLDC
Chain of VHL-ElonginC-ElonginB (VCB), wild type (Q15370 1-104, chain 3 of 3): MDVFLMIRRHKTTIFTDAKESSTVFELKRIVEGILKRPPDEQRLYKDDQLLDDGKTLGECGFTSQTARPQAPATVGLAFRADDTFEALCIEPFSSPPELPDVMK
Chain of VHL-ElonginC-ElonginB (VCB) with VHL P71I (P40337 54-213 P71I, chain 1 of 3): as the sequence (P40337 54-213, chain 1 of 3) above, with P18I counted along it
Chain of VHL-ElonginC-ElonginB (VCB) with VHL P71I (Q15369 17-112, chain 2 of 3): as the sequence (Q15369 17-112, chain 2 of 3) above
Chain of VHL-ElonginC-ElonginB (VCB) with VHL P71I (Q15370 1-104, chain 3 of 3): as the sequence (Q15370 1-104, chain 3 of 3) above
Chain of VHL-ElonginC-ElonginB (VCB) with VHL N67Q (P40337 54-213 N67Q, chain 1 of 3): as the sequence (P40337 54-213, chain 1 of 3) above, with N14Q counted along it
Chain of VHL-ElonginC-ElonginB (VCB) with VHL N67Q (Q15369 17-112, chain 2 of 3): as the sequence (Q15369 17-112, chain 2 of 3) above
Chain of VHL-ElonginC-ElonginB (VCB) with VHL N67Q (Q15370 1-104, chain 3 of 3): as the sequence (Q15370 1-104, chain 3 of 3) above

B1: 5,6-carboxyfluorescein (FAM)-labeled HIF-1α peptide JC9 (peptide)
peptide: DEALAPYIPMDDDFQLRSF
modifications: also: FAM label, site not given here
binds: [1] | [2] | [3]
